Values of other authors as cited in publication PMC8777194.

Molecular target: Leader protein L L (Encephalomyocarditis virus) (UniProt P03304)

2A protein 2A (from UniProt P03304)
Kd: 1500 nM
